The target in the test is IL-2Rα (UniProt P01589). Kind of test: SPR; Biacore, IL-2 receptor proteins immobilised on a CM5 chip; wild-type IL-2 or variant 012 flowed over at stepwise concentrations for 120 s, then blank solution; 1:1 binding fit (steady state affinity for 001 on IL-2Rα). For orientation: SPR reads the build-up and loss of mass on a sensor chip optically.
IL-2Rα, sequence (P01589 22-272): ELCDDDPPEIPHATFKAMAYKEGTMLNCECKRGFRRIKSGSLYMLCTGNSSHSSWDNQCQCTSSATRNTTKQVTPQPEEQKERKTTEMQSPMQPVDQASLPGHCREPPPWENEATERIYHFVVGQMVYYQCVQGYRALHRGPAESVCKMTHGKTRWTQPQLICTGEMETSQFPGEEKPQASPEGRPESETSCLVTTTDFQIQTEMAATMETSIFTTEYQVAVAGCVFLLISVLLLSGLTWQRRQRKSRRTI

For wild-type IL-2 (001) (ligand), the dissociation constant Kd – broadly, the constant that tells how readily two partners part at equilibrium – turned out to be 47.5 nM.
